Measurements as given in patent US20080300210A1.

Biological target: cell receptor(s) in the thrips midgut (Frankliniella occidentalis)
Test: cell-based or functional assay

Work on “GN-S, soluble version of the Tomato spotted wilt virus (TSWV) GN envelope/membrane glycoprotein (from UniProt P36291 35-309)” yielded a percent of transmitting adults (thrips given an acquisition access period on GN-S mixed with purified TSWV) of 8 fold and a proportion of thrips infected with virus (real time RT-PCR, insects pre-exposed to GN-S then fed on TSWV-infected plant material) of 3 fold.
